Drawing on article PMC5788864, this text covers percent of the full-length NS5 binding activity to IRF3 for one molecule.

Test [1] has as its target Zika virus NS5 methyltransferase (MTase) domain, amino acids 1-264, strain FSS13025, HA-tag (Zika virus strain FSS13025). As to the kind of experiment: co-IP.
Test [2] has as its target Zika virus NS5 RNA-dependent polymerase (RdRp) domain, amino acids 275-903, strain FSS13025, HA-tag (Zika virus strain FSS13025). The test can be described thus: co-IP.

B1: interferon regulatory factor 3 (IRF3), endogenous (natural protein)
chain: MGTPKPRILPWLVSQLDLGQLEGVAWVNKSRTRFRIPWKHGLRQDAQQEDFGIFQAWAEATGAYVPGRDKPDLPTWKRNFRSALNRKEGLRLAEDRSKDPHDPHKIYEFVNSGVGDFSQPDTSPDTNGGGSTSDTQEDILDELLGNMVLAPLPDPGPPSLAVAPEPCPQPLRSPSLDNPTPFPNLGPSENPLKRLLVPGEEWEFEVTAFYRGRQVFQQTISCPEGLRLVGSEVGDRTLPGWPVTLPDPGMSLTDRGVMSYVRHVLSCLGGGLALWRAGQWLWAQRLGHCHTYWAVSEELLPNSGHGPDGEVPKDKEGGVFDLGPFIVDLITFTEGSGRSPRYALWFCVGESWPQDQPWTKRLVMVKVVPTCLRALVEMARVGGASSLENTVDLHISNSHPLSLTSDQYKAYLQDLVEGMDFQGPGES
On to B1, for which the percent of the full-length NS5 binding activity to IRF3 in test [1] was found to be 82%; in test [2] it was 51%.
